Biological target: HLA-A*02:01 (human)
Assay: UV-ligand exchange + anti-b2m ELISA; ++++ = peptide exchange yield >75%

- peptide exchange yield: > 75%
Binder: KLLETKWTL (modifications not checked) […]

Reference: US20170253633A1
